Like-named read-outs stand apart in the source and are kept apart here.
B1: CLP-326 (peptide)
peptide: LLHETDSAV
notes: also called PSMA 4-12
B2: CLP-336 (peptide)
peptide: MMNDQLMFL
notes: also called CPL-336; PSMA 663-671
B3: CLP-334 (peptide)
peptide: PMFKYHLTV
notes: also called PSMA 568-576
B4: CLP-324 (peptide)
peptide: LDSVELAHY
notes: Negative control; also called negative control peptide; PSMA 105-113
B5: CLP-333 (peptide)
peptide: LMYSLVHNL
notes: also called PSMA 469-477
B6: CLP-329 (peptide)
peptide: NMKAFLDEL
notes: also called PSMA 57-65
B7: CLP-331 (peptide)
peptide: NLNGAGDPL
notes: also called PSMA 260-268

Experiments:
[1] = target: T1, membrane-bound HLA-A0201 molecule on T2 cells (human); test: T2 cell HLA-A0201 stabilisation at 125.0 µM peptide, BB7.2 staining, flow cytometry
T1 construct: whole, on cells; also called human MHC class 1 molecule
Experimental: (§1) Thus, the detection of this specific epitope is indicative of stable membrane-bound HLA-A0201 molecules loaded with peptide.
(§2) T2 cells were propagated in Iscove's complete medium (Iscove's medium supplemented with 10% heat-inactivated bovine serum, 120.0 units per ml of penicillin G sodium, 120 μg per ml of streptomycin sulphate, and 0.35 mg per ml of L-glutamine). The ability of PSMA peptides (Table 1) to bind and stabilize surface HLA-A0201 molecules on T2 cells was determined utilizing a protocol documented in the art (Deng, Y. (1997) J Immunol 158:1507-1515). In essence, 0.5×10⁶ T2 cells were incubated with 125.0 μM of the test peptide in 200.0 μl of serum-free culture medium (Iscove's medium supplemented with 120.0 units per ml of penicillin G sodium, 120.0 μg per ml of streptomycin sulphate and 0.35 mg per ml of L-glutamine) overnight at 37° C. Subsequently, cells were washed twice with Iscove's medium (without bovine serum) to remove free PSMA peptide. To the cell pellet was added 1.0 ml of complete Iscove's medium (supplemented with fetal bovine serum (10% final)) containing 5.0 μg per ml of brefeldin A (Sigma), 12.5 μg per ml of anisomycin (Sigma) and 5.0 μg per ml of cyclohexamide (Sigma). The samples were incubated for 3.0 hr in a 37° C. CO₂ incubator. The cells were subsequently incubated 30 min on ice prior to two washes with ice-cold PBA (phosphate buffered saline (pH 7.2) containing 2.0% bovine serum). 100.0 μl of PBA containing 5.0 μg of monoclonal antibody BB7.2 was added to each test sample. The reaction was allowed to proceed on ice for 45 min. Cells were then washed three times with ice-cold PBA. The binding of BB7.2 was detected via the addition of 100.0 μl of PBA containing 1.0 μg of goat anti-mouse IgG-Fc fluorescein (FITC) conjugate (BETHYL Laboratories Inc.). After a 30 min incubation on ice, cells were twice washed with ice-cold PBA, and twice with ice-cold PBS (pH 7.2). […] Samples were analyzed by Flow Cytometry. Results were expressed in units of Fluorescence Index (FI), calculated by the equation: […]

[2] = target: T1, membrane-bound HLA-A0201 molecule on T2 …; test: T2 cell HLA-A0201 stabilisation, BB7.2 staining, flow cytometry
Experimental: as §1, §2

[3] = target: T1, membrane-bound HLA-A0201 molecule on T2 …; test: as above; remark: listed apart in the source
Experimental: as §2, with “The samples were incubated for 3.0 hr in a 37° C. CO₂ incubator. The cells were subsequently incubated 30 min on ice prior to two washes with ice-cold PBA (phosphate buffered saline (pH 7.2) containing 2.0% bovine serum). 100.0 μl of PBA containing 5.0 μg of monoclonal antibody BB7.2 was added to each test sample. The reaction was allowed to proceed on ice for 45 min. Cells were then washed three times with ice-cold PBA.” left out, “Inc.).” for “Inc.). After a 30 min incubation on ice, cells were twice washed with ice-cold PBA, and twice with ice-cold PBS (pH 7.2).”

| Binder | Fluorescence Index (FI) [1] [FI] | binding result [2] | also measured |
| --- | --- | --- | --- |
| B1 | 0.6 | – | – |
| B2 | 3.7 | – | – |
| B3 | – | no binding | – |
| B4 | – | – | binding result [3]: no binding (tested: 125.0 µM peptide) |
| B5 | 2.7 | – | – |
| B6 | – | no binding | – |
| B7 | – | no binding | – |

Reference: patent US20030027246A1 (published 2003)
